The values that follow come from patent US20170204174A1 (published 2017).

Residue numbers refer to the chain shown, from its start.

Test [1] addresses recombinant mature human GDF-15 protein (SEQ ID No: 8) (human) (UniProt Q99988). Put plainly: Surface Acoustic Wave (SAW) gold chip biosensor.
The target in test [2] is T1, recombinant mature human GDF-15 protein (SEQ ID No: 8) (human, UniProt Q99988 197-308).
T1 construct: also called recombinant human GDF-15; recombinant GDF-15
T1 sequence: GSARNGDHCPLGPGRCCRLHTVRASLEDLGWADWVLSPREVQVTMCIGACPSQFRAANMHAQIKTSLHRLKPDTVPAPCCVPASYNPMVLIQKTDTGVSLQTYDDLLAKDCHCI
Put plainly: Surface Acoustic Wave (SAW) gold chip biosensor.

The target of test [3] is T1, recombinant mature human GDF-15 protein …. Put plainly: Surface Acoustic Wave (SAW) gold chip biosensor; antibody as serum-free CHO culture supernatant.
For test [4] the target is unchanged. Put plainly: Surface Acoustic Wave (SAW) gold chip biosensor. This is another data set of the same source.
Another test deals with human Interleukin-5 (human, UniProt P05113 20-134). Put plainly: SPR (ProteOn XPR36), IL-5 immobilised, antibody as analyte. From the text:
(§1) For preparing the biosensors recombinant mature human GDF-15 protein was immobilized on flow cells 1 and 2. On one flow cell recombinant GDF-15 derived from Baculvirus-transfected insect cells (HighFive insect cells) and on the other recombinant protein derived from expression in E. coli was used. The GLC sensor chip was activated using Sulfo-NHS (N-Hydroxysulfosuccinimide) and EDC (1-Ethyl-3-[3-dimethylaminopropyl]carbodiimide hydrochloride) (Bio-Rae ProteOn™ Amine Coupling Kit) according to the manufacturer's recommendation, the sensor surface was subsequently loaded with the proteins up to a density of about 600 RU (1 Ru=1 pg mm⁻²). The non-reacted coupling groups were then quenched by perfusion with 1M ethanolamine pH 8.5 and the biosensor was equilibrated by perfusing the chip with running buffer ([…], 150 mM NaCl, 3.4 mM EDTA, 0.005% Tween®20, pH 7.4, referred to as HBS150). As controls two flow cells were used, one empty with no protein coupled and one coupled with an non-physiological protein partner (human Interleukin-5), which was immobilized using the same coupling chemistry and the same coupling density. […] The resulting sensogram was analyzed using the software ProteOn Manager version 3.0. […]

The target of test [5] is T1, recombinant mature human GDF-15 protein …. In words: SPR (ProteOn XPR36), KD=koff/kon, insect-cell GDF-15 immobilised.
From the text: as §1

The target of test [6] is T2, recombinant mature human GDF-15 protein derived from expression in E. coli (human, UniProt Q99988 195-308).
T2 construct: mature; also called GDF-15 derived from E. coli expression
T2 sequence (looked up): T1 sequence with G1A, S2R
In words: SPR (ProteOn XPR36), E. coli GDF-15 immobilised, antibody as analyte.
From the text: as §1

The target in test [7] is T1, recombinant mature human GDF-15 protein …. In words: SPR (ProteOn XPR36), insect-cell GDF-15 immobilised, antibody as analyte, 1:1 Langmuir, 25° C.
From the text: as §1

Chain of human Interleukin-5 (P05113 20-134 limits assumed): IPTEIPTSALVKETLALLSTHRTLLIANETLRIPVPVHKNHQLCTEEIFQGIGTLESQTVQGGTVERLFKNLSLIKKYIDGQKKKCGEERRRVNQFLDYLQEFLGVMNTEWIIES

Consider Rituxumab (control antibody), for which, in test [1], the Kd (commonly the concentration at which binding is half-saturated) came to 1120 nM.

B1: H1L5 humanized B1-23 anti-GDF-15 antibody (antibody, human IgG1, V domains shown)
VH: QITLKESGPTLVKPTQTLTLTCTFSGFSLSTSGMGVSWIRQPPGKGLEWLAHIYWDDDKRYNPTLKSRLTITKDPSKNQVVLTMTNMDPVDTATYYCARSSYGAMDYWGQGTLVTVSS
VL: DIVLTQSPSFLSASVGDRVTITCKASQNVGTNVAWFQQKPGKSPKALIYSASYRYSGVPDRFTGSGSGTEFTLTISSLQPEDFAAYFCQQYNNFPYTFGGGTKLEIKR
notes: Human IgG1 (trastuzumab backbone); also called H1L5 anti-GDF-15 antibody; humanized B1-23-H1L5 antibody
For B1, the “fold higher affinity than the murine B1-23 antibody” value in test [2] is roughly 5 fold. The Kd in test [3] amounted to 5.62 nM.

B2: murine monoclonal anti-human GDF-15 antibody mAb-B1-23 (antibody, V domains shown)
VH: QVKLQQSGPGILQSSQTLSLTCSFSGFSLSTSGMGVSWIRQPSGKGLEWLAHIYWDDDKRYNPTLKSRLTISKDPSRNQVFLKITSVDTADTATYYCARSSYGAMDYWGQGTSVTVSS
VL: DIVLTQSPKFMSTSVGDRVSVTCKASQNVGTNVAWFLQKPGQSPKALIYSASYRYSGVPDRFTGSGSGTDFTLTISNVQSEDLAEYFCQQYNNFPYTFGGGTKLEIKR
notes: also called anti-human GDF-15 mAb-B1-23; B1-23 anti-GDF-15 antibody (murine, IgG2a)
B2: in test [4], the Kd came to 28.8 nM. Further, the binding result with human Interleukin-5 is “no binding (tested: 0.4, 0.8, 3, 12, 49 and 98 nM)”. The Kd in test [5] is roughly 0.79 nM. In addition, the “factor by which the affinity differs from that for insect-cell GDF-15” value in test [6] was less than 2 fold. For the same molecule, in test [7], the koff (usually a measure of how fast the partners let go of each other) was 0.00043 s⁻¹ and the kon – broadly, the second-order rate constant of association – was 540000 M⁻¹ s⁻¹.

B3: chimeric anti-human GDF-15 mAb-B1-23 antibody (antibody, human IgG1, kappa, V domains shown)
VH: B2 VH
VL: B2 VL
notes: Murine variable domains, constant domains of a human IgG1 (trastuzumab backbone); also called Chimeric B1-23 anti-GDF-15 antibody; chimeric B1-23
Take B3: in test [2], the “fold higher affinity than the murine B1-23 antibody” value was roughly 2 fold. In test [4], the Kd was 14 nM.
